Our source for the response values is publication PMC4840364.

The assay concerns the target glycoprotein Ibα (GPIbα) on human platelets, P07359. Description: flow cytometry on cells. To be noted: chain shown with the change, human platelets incubated 20 min, washed once, FITC-conjugated goat anti-mouse IgG, MFI of 10,000 cells, read off a plot.

B1: wild-type 5G6 Fab fragment (recombinant) H:T102A; H:T103A; H:T104A; H:T105A; L:D93A (protein)
chain 1: QVTLKESGPGILQPSQTLSLTCSFSGFSLSTSNMGVVWIRQPSGKGLEWLLHILWNDGKFYNPALKSRLTISKDTYNNQVFLKIANVDTADTATYYCARLFAAAASGYFDVWGAGTTVTVSS
chain 2: DIQMTQSPASLSASVGETVTITCRASGNIYNYLAWYQQKQGKSPQLLVYNAKTLADGVPSRFSGSGSGTQYSLKINSLQPEDFGSYFCQHFWATPWTFGGGTKLEIK
On to B1, for which the response ([mAb] about 37 nM (read from x axis), parent: est. 320) was 8 a.u and the response ([mAb] about 110 nM (read from x axis), parent: est. 290) turned out to be 10 a.u.
